# PMC11961569
# Biological target: EfpA^EM (BRIL-P171R EfpA, Mycobacterium tuberculosis efflux protein A) (not stated | Mycobacterium tuberculosis) (UniProt P9WJY4)
# Test: cryo-EM structure; EfpA-EM mixed with anti-BRIL Fab and anti-Fab elbow Nb (1:1.5:2), separated on Superose 6 in 50 mM Tris-Cl pH 7.5, 300 mM NaCl, 0.02% GDN; apo sample gave antiparallel (dominant) and parallel dimers; samples with BRD-8000.3 or BRD-9327 gave antiparallel dimers
substance,measurement,value
"EfpA^EM (BRIL-P171R EfpA, Mycobacterium tuberculosis efflux protein A) (from UniProt P9WJY4 49-530)",stoichiometry N,2
